Measured values taken from patent publication US20110287948A1, “MEASUREMENT OF MATERIAL PROPERTIES AND RELATED METHODS AND COMPOSITIONS BASED ON CYTOADHERENCE” (Massachusetts Institute of Technology, priority 2010, published 2011).

What was measured:
[1] = system: Acute promyelocytic leukemia cells; settings: cells induced to differentiate down the neutrophil lineage for three days; cited from earlier work
WT T cells [2] = assay: Micropipette aspiration of CCL19-stimulated migratory WT T cells; format: cell-based, mouse (Balb/c)
Procedure: (§1) Micropipettes made using a micropipette puller were trimmed to 2.5-3 or 4.5-5 μm inner diameter for testing naïve and activated T cells. MPA glass chambers consisted of a 24 mm×60 mm microscope coverslip bottom, a U-shaped parafilm spacer, and a 22 mm×22 mm microscope coverslip top. The assembly was baked for two hours at 80° C. to ensure good adhesion between the components.
(§2) Enriched WT and WAS−/− T cells in DMEM with 1% BSA and 0.1% Pen/Strep were induced to migrate through polycarbonate Transwell inserts (Costar, Cambridge, Mass.) with 5-μm pores in a 24-well plate toward a CCL19 chemokine source (R&D Systems, Minneapolis, Minn.). Inserts contained 5×10^5 cells in 100 μL of medium, and wells contained 1 mL of medium with either no CCL19 or 100 ng/mL of CCL19. Cells were allowed to migrate for ˜7 hours at 37° C., and those that crossed the membrane were collected and used for MPA studies.
(§3) 3×10^5 cells in 100 μL RPMI with 10% FBS and 1% HEPES was stained with 10 μL trypan blue. The mixture was added to 600 μL of either the RPMI medium or the T cell activation medium with IL-2 for naïve and activated T cell testing. Migratory T cells were tested in the medium used for migration. The MPA device was based on the design of Hochmuth et al (18). The aspiration rate and volume were 36 mL/hr and 2 mL, corresponding to a total pressure of ˜400 Pa. The cell movement in the micropipette was recorded with a CCD camera. Aspirations were performed at approximately room temperature.
MPA data were fitting using the half-space model (77) described by the expressions:
where E is the cell modulus, L is the length from the micropipette opening to the cell leading edge, Δp is the pressure differential at a particular L, ri and ro are the inner and outer […] of the micropipette, and φ is the wall function that is approximately […]. The ImageJ software was used to manually track the change in L. By plotting Δp against ri/L and finding the best linear fit (minimal total error) a modulus could be derived from the slope of the line. […]

WAS−/− T cells [3] = assay: Micropipette aspiration of CCL19-stimulated migratory WAS-/- T cells; format: cell-based, mouse (WAS−/− on Balb/c background); settings: naïve WAS−/− T cells that migrated in response to CCL19
Procedure: as §1, §2
as §3, with “The aspiration rate and volume were 36 mL/hr and 2 mL, corresponding to a total pressure of ˜400 Pa.” left out, “Aspirations were performed at approximately room temperature.” left out

WT T cells [4] = assay: FACS analysis of phenotype (CD62L/CD44) of WT T cells induced to migrate by CCL19; format: cell-based, mouse (Balb/c); settings: WT cells that migrated after CCL19 exposure
Procedure: FIG. 68 depicts results of a FACS analysis of phenotype of naïve WT T cells induced to migrate by the chemokine CCL19. T cells were first gated on PI to exclude dead cells. The cell samples tested were naïve T cells not exposed to CCL 19 (A, D), cells that remained in the insert after CCL19 exposure (100 ng/mL) for seven hours (B, E), and cells that migrated across the insert membrane after the same chemokine treatment (C, F).
Cells from the peripheral lymph nodes and the spleen of Balb/c mice and WAS−/− mice on Balb/c background were pooled and enriched using the EasySep Mouse CD8+ T Cell Enrichment Kit from STEMCELL Technologies (British Columbia, Canada). Enrichment was confirmed using fluorescence-activated cell sorting (FACS) by staining the cells with FITC/anti-Thy1.2 and PE/anti-CD8a antibodies (Abs). The memory T cell population was assessed by evaluating the expression of CD44 and CD62L via FACS. T cells in an activation medium with 100 units/mL IL-2 and 1% anti-CD28 Ab were activated by plate-bound anti-CD3 Abs for 4 day at 37° C. The activation medium included RPMI with 10% FBS, 10 mM HEPES (1M), 1% NEAA, 1% sodium pyruvate (100 mM), […] (3-mercaptoethanol, 4 mM L-glutamine, and 100 μg/mL Pen/Strep. Cell activation was verified via FACS measurement of CD25. […]

WAS−/− T cells [5] = assay: In vitro Transwell cell migration toward CCL19, WAS-/- T cells; format: cell-based, mouse (WAS−/− on Balb/c background); settings: seven hours of exposure to CCL19 (100 ng/mL), 5-μm pore inserts
Procedure: Cells from the peripheral lymph nodes and the spleen of Balb/c mice and WAS−/− mice on Balb/c background were pooled and enriched using the EasySep Mouse CD8+ T Cell Enrichment Kit from STEMCELL Technologies (British Columbia, Canada). Enrichment was confirmed using fluorescence-activated cell sorting (FACS) by staining the cells with FITC/anti-Thy1.2 and PE/anti-CD8a antibodies (Abs). The memory T cell population was assessed by evaluating the expression of CD44 and CD62L via FACS. T cells in an activation medium with 100 units/mL IL-2 and 1% anti-CD28 Ab were activated by plate-bound anti-CD3 Abs for 4 day at 37° C. The activation medium included RPMI with 10% FBS, 10 mM HEPES (1M), 1% NEAA, 1% sodium pyruvate (100 mM), […] (3-mercaptoethanol, 4 mM L-glutamine, and 100 μg/mL Pen/Strep. Cell activation was verified via FACS measurement of CD25. Enriched WT and WAS−/− T cells in DMEM with 1% BSA and 0.1% Pen/Strep were induced to migrate through polycarbonate Transwell inserts (Costar, Cambridge, Mass.) with 5-μm pores in a 24-well plate toward a CCL19 chemokine source (R&D Systems, Minneapolis, Minn.). Inserts contained 5×10^5 cells in 100 μL of medium, and wells contained 1 mL of medium with either no CCL19 or 100 ng/mL of CCL19. Cells were allowed to migrate for ˜7 hours at 37° C., and those that crossed the membrane were collected and used for MPA studies.

CC1=C(/C=C/C(C)=C/C=C/C(C)=C/C(=O)O)C(C)(C)CCC1 [all-trans retinoic acid]
more compliant than the control (creep compliance) [1]: 45%

B1: CCL19: chemokine CCL19 (R&D Systems) used as chemoattractant for T cells (protein, UniProt Q99731 22-98, looked up)
C-C motif chemokine 19: GTNDAEDCCLSVTQKPIPGYIVRNFHYLLIKDGCRVPAVVFTTLRGRQLCAPPDQPWVERIIQRLQRTSAKMKRRSS
stiffness compared to activated cells (WT T cells [2]; migratory WT cells vs activated WT T cells): about 1.4 times | modulus reduction from the value measured in the absence of CCL19 (WT T cells [2]; migratory WT cells vs untreated naïve WT cells): more than 2 times | apparent Young's modulus (mean+/−SD) (WT T cells [2]; naïve WT T cells that migrated in response to CCL19): 128+/−33 Pa | apparent Young's modulus (mean+/−SD) (WAS−/− T cells [3]): 152+/−102 Pa | migrating cells stained CD62L high and CD44 low (naïve phenotype) (WT T cells [4]): ~90% | cells migrated (WAS−/− T cells [5]): ~6.4%
